Laboratory results as given in article PMC11464680, “ABIOTIC STRESS GENE 1 mediates aroma volatiles accumulation by activating MdLOX1a in apple”.

T1: MdASG1-GST (Malus domestica (apple; library from …, UniProt A0A498KLW2 21-457)
T1 sequence: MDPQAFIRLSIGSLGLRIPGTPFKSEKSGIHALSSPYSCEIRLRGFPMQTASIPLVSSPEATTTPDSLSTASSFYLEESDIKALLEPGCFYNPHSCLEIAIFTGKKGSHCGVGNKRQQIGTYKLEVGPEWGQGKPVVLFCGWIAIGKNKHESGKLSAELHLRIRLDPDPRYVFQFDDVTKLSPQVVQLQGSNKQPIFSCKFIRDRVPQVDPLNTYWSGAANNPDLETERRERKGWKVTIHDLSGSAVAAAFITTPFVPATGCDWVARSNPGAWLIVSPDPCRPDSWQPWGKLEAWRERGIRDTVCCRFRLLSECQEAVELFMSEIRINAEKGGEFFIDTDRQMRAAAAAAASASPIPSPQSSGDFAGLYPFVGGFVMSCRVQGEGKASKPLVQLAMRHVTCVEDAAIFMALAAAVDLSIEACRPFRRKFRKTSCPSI

B1: Mutant-M1 (dsDNA)
DNA 1: GATTACATCTATGTCATCTTAAAGCCAGCTAACTTTCGGGATAAATTACCTTATAC
DNA 2: GTATAAGGTAATTTATCCCGAAAGTTAGCTGGCTTTAAGATGACATAGATGTAATC
B2: p4MdLOX1a-2 (dsDNA)
DNA 1: AATTACGCAGGGATTACATCTATGTCATCTTAAAGCCAGCTAACTTTCGGGATAAACGATTTTGTAC
DNA 2: GTACAAAATCGTTTATCCCGAAAGTTAGCTGGCTTTAAGATGACATAGATGTAATCCCTGCGTAATT
B3: p4MdLOX1a-2-M6 (dsDNA)
DNA 1: AATTACGCAGGGATTACATCTATGTCATCTTAAAGCCAGCTAACTTTCGGGATAA
DNA 2: TTATCCCGAAAGTTAGCTGGCTTTAAGATGACATAGATGTAATCCCTGCGTAATT

target: T1, MdASG1-GST; experiment: EMSA; LightShift Chemiluminescent EMSA kit binding buffer (composition, salt and pH not stated), 24 °C, 15 min; settings: protein: recombinant; tags: GST (pGEX-4T, N-terminal); label: biotin; blunt

**Q.** Does B1 bind?
**A.** no binding

**Q.** Does B2 bind?
**A.** binds

**Q.** Does B3 bind?
**A.** no binding
